T1: CALRins5 (mutant calreticulin, 5 base pair insertion, Type 2) expressed with MPL on engineered cancer cells (UniProt P27797 18-417)
T1 construct: whole, on cells; On the cell surface in complex with MPL; also called OCI-M2 MPL CALRins5
T1 sequence (looked up): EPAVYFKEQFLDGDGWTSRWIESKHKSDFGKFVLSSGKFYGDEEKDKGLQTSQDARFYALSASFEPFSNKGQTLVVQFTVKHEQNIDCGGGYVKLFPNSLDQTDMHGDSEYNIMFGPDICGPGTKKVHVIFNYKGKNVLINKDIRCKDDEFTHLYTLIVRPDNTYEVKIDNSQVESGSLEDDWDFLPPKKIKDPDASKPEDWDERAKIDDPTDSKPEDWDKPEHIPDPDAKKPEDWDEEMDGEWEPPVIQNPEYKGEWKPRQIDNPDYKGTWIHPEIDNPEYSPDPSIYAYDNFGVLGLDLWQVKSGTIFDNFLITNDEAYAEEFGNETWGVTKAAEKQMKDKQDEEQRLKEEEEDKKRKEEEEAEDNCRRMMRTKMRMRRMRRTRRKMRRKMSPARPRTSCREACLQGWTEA

T2: wild-type calreticulin (CALRwt) expressed with MPL in engineered cancer cells (UniProt P27797 18-417, limits assumed)
T2 construct: whole, on cells; also called OCI-M2 MPL CALRwt
T2 sequence (looked up): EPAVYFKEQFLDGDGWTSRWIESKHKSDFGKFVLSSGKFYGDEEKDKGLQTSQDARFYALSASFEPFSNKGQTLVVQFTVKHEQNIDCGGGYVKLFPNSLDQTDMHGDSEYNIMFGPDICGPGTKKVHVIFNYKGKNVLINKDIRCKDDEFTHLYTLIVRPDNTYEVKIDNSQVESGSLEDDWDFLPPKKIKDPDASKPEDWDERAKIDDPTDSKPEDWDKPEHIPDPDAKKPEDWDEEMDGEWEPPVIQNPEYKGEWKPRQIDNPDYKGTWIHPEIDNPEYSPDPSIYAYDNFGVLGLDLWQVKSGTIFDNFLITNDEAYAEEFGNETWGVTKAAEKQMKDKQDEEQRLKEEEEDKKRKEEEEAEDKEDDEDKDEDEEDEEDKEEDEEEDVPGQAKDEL

T3: HIS-CALRdel52 (produced in E. coli)
T3 construct: also called recombinant CALRdel52 protein; CALRdel53 target protein
T3 chain: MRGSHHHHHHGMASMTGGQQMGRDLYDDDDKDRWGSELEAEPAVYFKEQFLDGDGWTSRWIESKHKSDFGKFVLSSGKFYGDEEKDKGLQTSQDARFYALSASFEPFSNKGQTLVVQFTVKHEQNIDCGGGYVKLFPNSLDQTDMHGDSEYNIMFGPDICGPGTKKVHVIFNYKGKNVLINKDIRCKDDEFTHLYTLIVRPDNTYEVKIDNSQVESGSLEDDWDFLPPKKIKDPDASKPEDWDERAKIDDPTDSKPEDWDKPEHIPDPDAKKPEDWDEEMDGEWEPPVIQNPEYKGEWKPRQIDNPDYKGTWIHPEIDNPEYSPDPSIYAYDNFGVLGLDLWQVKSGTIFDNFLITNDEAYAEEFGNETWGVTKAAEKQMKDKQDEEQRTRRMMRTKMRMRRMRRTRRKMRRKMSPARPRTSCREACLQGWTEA

T4: 22 amino acid CALRmut-specific peptide (acetylation of the terminal amino-group; C-terminal -OH group)
T4 construct: also called 22aa CALRmut peptide; CALRmut target peptide
T4 peptide: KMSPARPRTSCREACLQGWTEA

B1: C3CRB137 CALRmut x CD3 bispecific antibody (bispecific antibody, human IgG1, kappa, L234A L235A)
scFv: DIQMTQSPSSLSASVGDRVTITCRARQSIGTAIHWYQQKPGCAPKLLIKYASESISGVPSRFSGSGSGTDFTLTISSLQPEDFATYYCQQSGSWPYTFGQGTKLEIKGGGSGGSGGCPPCGGSGGEVQLVESGGGLVKPGGSLRLSCAASGFTFSRYNMNWVRQAPGKGLEWVSSISTSSNYIYYADSVKGRFTFSRDNAKNSLDLQMSGLRAEDTAIYYCTRGWGPFDYWGCGTLVTVSSEPKSSDKTHTCPPCPAPEAAGGPSVFLFPPKPKDTLMISRTPEVTCVVVSVSHEDPEVKFNWYVDGVEVHNAKTKPREEQYNSTYRVVSVLTVLHQDWLNGKEYKCKVSNKALPAPIEKTISKAKGQPREPQVYTLPPSREEMTKNQVSLWCLVKGFYPSDIAVEWESNGQPENNYKTTPPVLDSDGSFFLYSKLTVDKSRWQQGNVFSCSVMHEALHNHYTQKSLSLSPGK
heavy: EVQLLESGGGLVQPGGSLRLSCAVSGIDLSNNAISWVRQAPGKGLEYVGVIGNTGDTYYADSAKGRFTISRDSSKTTLYLQMNSLRAEDTAVYFCVRGPPSYSSSVKNIWGQGTLVTVSSASTKGPSVFPLAPSSKSTSGGTAALGCLVKDYFPEPVTVSWNSGALTSGVHTFPAVLQSSGLYSLSSVVTVPSSSLGTQTYICNVNHKPSNTKVDKKVEPKSCGGGGSGGGGSEVQLLESGGGLVQPGGSLRLSCAVSGIDLSNNAISWVRQAPGKGLEYVGVIGNTGDTYYADSAKGRFTISRDSSKTTLYLQMNSLRAEDTAVYFCVRGPPSYSSSVKNIWGQGTLVTVSSASTKGPSVFPLAPSSKSTSGGTAALGCLVKDYFPEPVTVSWNSGALTSGVHTFPAVLQSSGLYSLSSVVTVPSSSLGTQTYICNVNHKPSNTKVDKKVEPKSCDKTHTCPPCPAPEAAGGPSVFLFPPKPKDTLMISRTPEVTCVVVSVSHEDPEVKFNWYVDGVEVHNAKTKPREEQYNSTYRVVSVLTVLHQDWLNGKEYKCKVSNKALPAPIEKTISKAKGQPREPQVYTLPPSREEMTKNQVSLSCAVKGFYPSDIAVEWESNGQPENNYKTTPPVLDSDGSFFLVSKLTVDKSRWQQGNVFSCSVMHEALHNRFTQKSLSLSPGK
light: DIQMTQSPSSVSASVGDRVTITCQSSQSVYNNNWLSWLQQKPGKAPKRLIYDASKLESGVPSRFSGSGSGTDFTLTISSVQPEDAATYYCAGGFTGNVYTFGGGTKVEIKRTVAAPSVFIFPPSDEQLKSGTASVVCLLNNFYPREAKVQWKVDNALQSGNSQESVTEQDSKDSTYSLSSTLTLSKADYEKHKVYACEVTHQGLSSPVTKSFNRGEC
notes: Chain B heavy: two CALRB421 Fab heavy parts in tandem, Fc
B2: Clone 1 (Fab, V domains shown)
VH: QEQLKESGGRLVTPGTPLTLTCAVSGFSLDIYGMSWVRQAPGKGLEWIGIIYIEGITYYANWAKGRFTISKTSSTTLELKMTSLTTEDTAMYFCVAGVGRIWGPGTLVTVSS
VL: YVMMTQTPSSVSAAVGGTVTINCQASQSLYNNNNLAWFQQKPGQPPKRLIYPASTLASGVSSRFKGSGSGTQFTLTISDVQRDDAATYFCLGEFSCSSADCYAFGGGTEVVVK
notes: Rabbit/human chimeric Fab (human CH1, CK) on phage; also soluble Fab-AP
B3: Clone 4 (Fab, V domains shown)
VH: QEQLEESGGRLVTPGTPLTLTCKVSGIDLSNNAISWVRQAPGKGLEYIGVIGNTGDTYYASWAKGRFTISKTSSTTVDLKMTSLTTEDTATYFCVRGPPSYSNSVKNIWGPGTLVTISS
VL: DPMLTQTPSSVSAAVGGTVTINCQSSQSVYNNNWLSWLQQKPGQPPNRLIYDASKLESGVPSRFSGSGSGTQFTLTISGVQRDDAATYYCAGGFTGNVYTFGGGTEVVVK
notes: as for B2
B4: Clone 16 (Fab, V domains shown)
VH: QEQLKESGGRLVTPGTPLTLTCTASGFSLSNYYMSWVRQAPGKGLEWIGGISSRAGTWYASWAKGRFTISGTSTTMDLKITSPTTEDTATYFCARGLKIWGPGTLVTVSS
VL: DPVLTQTESPVSAAVGGTVTINCQASQSVYDDNNLAWYQQKPGQPPKRLIYPASTLASGVSSRFSGSGSGSQFTLTISDVQCDDAATYYCQGEFSCTSADCVAFGGGTEVVVK
notes: as for B2
B5: Clone 20 (Fab, V domains shown)
VH: QSLEESGGRLVTPGTPLTLTCTVSGIDLSNNAISWVRQAPGKGLEYIGVIGNTGDTYYASWAKGRFTISKTSSTTVDLKMTSLTTEDTATYFCVRGPPSYSNSVKNIWGPGTLVTISS
VL: DPMLTQTPSSVSAAVGGTVTIGCQSSQSVYDKNWLSWYQQKPGQPPSRLIYDASKLESGVPSRFSGSGSGTQFTLTISGVQCDDAATYYCAGGFTGNVYAFGGGTKLEIK
notes: as for B2
B6: Clone 17 (Fab, V domains shown)
VH: B3 VH with K23T, I34M, D56T, S61N, T75A, E87D, I117V
VL: B3 VL with P2V, N31D, N32K, N47S, R82C, E106K
notes: as for B2
B7: Clone 2 (Fab, V domains shown)
VH: B5 VH with L3V, D55T, T85A, E86S, I116V
VL: B5 VL with S78G
notes: as for B2
B8: Clone 10 (Fab, V domains shown)
VH: B5 VH with L3V
VL: B5 VL with A85V, K106E, L107V, E108V, I109V
notes: as for B2
B9: Clone 18 (Fab, V domains shown)
VH: QSVEESGGRLVTPGTPLTITCTVSGFSLSSYAMSWVRQAPGKGLEWIGVIDSGGTTYYATWAKSRFTISKTQTKVALKITSPTTEDTATYFCARESYAGYDGYGHPIPYGMDPWGPGTLVTVSS
VL: DVVMTQTPSSVSAAVGGTVTINCQASQSLYNNKNLAWYQQKPGQPPKLLIYYASALASGVSSRFKGSGSGTQFTLTISGVQCDDAATYYCQGEFNCNSADCNSFGGGTEVVVK
notes: as for B2
B10: Clone 22 (Fab, V domains shown)
VH: QQLEESGGRLVTPGTPLTLTCTVSGIDLSNNAMSWVRQAPGKGLEYIGVIGNTGTTYYASWAKGRFTISKTSSTTVDLKMTSLTTEDTATYFCVRGPPSYSNSVKNIWGPGTLVTIS
VL: B3 VL with M3V, R82C
notes: as for B2
B11: Clone 15 (Fab, V domains shown)
VH: B5 VH with S2Q, D55T, T85A, E86S
VL: B3 VL with P2V, M3V, L4M, R82C
notes: as for B2

Numbering of substitutions follows the chain as printed.

What is called EC50 (read off the curve) is the concentration giving half of the maximal effect. A lower EC50 (read off the curve) goes with higher potency in that assay.

The target in the first assay is T1, CALRins5 (mutant calreticulin, 5 base …). Nature of the assay: flow cytometry on ELF-153 MPL CALRins5 cells, 1 h at 37 C, AF647 secondary antibody, Geometric mean. As to the method: (§1) FIGS. 27A-27F depict binding of different CALRmutxCD3 antibodies to CALRmut-negative or CALRmut-positive cells. Flow cytometry was used to evaluate CALRmutxCD3 binding to CALRmut-negative and CALRmut-positive cancer cells in vitro. CALRmutxCD3 antibodies were tested on a panel of cell lines, engineered to express MPL and CALRmut, after 1 hour 37° C. incubation, with subsequent incubation with secondary AF647-labeled antibody. Geometric mean fluorescence intensity of AF647 was measured to determine antibody binding.
Background: In flow cytometry, cells or beads pass a laser one at a time.
Turning to B1, the “EC50 (read off the curve)” value is roughly 1 nM.

For another assay, the target named is T2, wild-type calreticulin (CALRwt) …. The assay can be described thus: flow cytometry on OCI-M2 MPL CALRwt cells, 1 h at 37 C, AF647 secondary antibody, Geometric mean. The method, then: as §1
Consider B1, for which the binding result is given as “no binding (tested: 100 nM)”.

A further assay addresses T3, HIS-CALRdel52 (produced in E. coli). Nature of the assay: QC monoclonal phage ELISA. The source says: Next, recombinant CALRdel52 protein (SEQ ID NO: 5) and the 22 amino acid CALRmut peptide (SEQ ID NO: 1) were used for selecting specific binders from the immune rabbit/human Fab library prepared above. By DNA sequencing, 15 unique Fabs were identified and specific binding to the CALRmut target peptide was confirmed by phage ELISA and by QC ELISA after soluble expression of Fab-AP (Fab-conjugated to Alkaline Phosphatase).
For orientation: ELISA stands for enzyme-linked immunosorbent assay.
Regarding B2, the “phage ELISA signal (Coating: CALR)” value is 2.92.
In the case of B3, the “phage ELISA signal (Coating: CALR)” value stood at 2.54.
On the same count and under the same terms, next, B4: 2.94; B5: 2.69; B6: 2.23.
Turning to B7, the “phage ELISA signal (Coating: CALR)” value worked out at 2.87.
On the same count and under the same terms, with B8 the figure was 2.18; with B9, 1.91.

In a further assay the target is T4, 22 amino acid CALRmut-specific peptide. Nature of the assay: phage ELISA; QC ELISA of soluble Fab-AP.
For the molecule B2, the binding result is “binds”.
As for B3, the binding result is “binds”.
The same measure, in the same setting: with B10 the entry was “binds”; with B4, “binds”; with B5, “binds”.
In the case of B11, the binding result is given as “binds”.
B6: the binding result is “binds”.
Take B7: the binding result is “binds”.
On to B8, for which the binding result is “binds”.
Consider B9, for which the binding result is “binds”.
